Patent US20240352080A1 (Seagen, published 2024)

Target: T1, CD47 (UniProt Q08722 19-323, limits assumed)
T1 construct: whole, on cells; L540cy and SW780 are the cell lines named
Assay: saturation binding, flow cytometry on CD47-expressing L540cy cells

B1: hB6H12.3 (unmasked parent) (antibody, V domains shown)
VH: EVQLLESGGGLVQPGGSLRLSCAASGFTFSGYGMSWVRQAPGKRLEWVATITSGGTYTYYPDSVKGRFTISRDNSKNTLYLQMNSLRAEDTAIYFCARSLAGNAMDYWGQGTLVTVSS
VL: EIVMTQSPDFQSVTPKEKVTLTCRASQTISDYLHWYQQKPDQSPKLLIKFASQSISGVPSRFSGSGSGSDFTLTINSLEAEDAATYYCQNGHGFPRTFGQGTKLEIKR
EC50: 0.021 µM
